Results on six sequences are retold here after the DeepSol protein solubility set.

A short description of this series: soluble on expression in E. coli; label from the status in PepcDB or PDB records.
Turning to “MAKRKAEDTQSDKMATAEKVAQNDYTIGLVDPVKDYQKLIETRVQVDEIVDDDVTKENFDRTAAAARDVIWRLLFDEAGTSQSNTEKASQLLEEYRGDACFYDPTPYNEWIVKLRDEVLKKELLDFWRDVLVKKQLGPCWSRDSDLFDSDDTPPLEFYAHAGCTAPFAASLKVRAALEEQASLDQDGPATPTTPGELSADDAAALSGEFEATLTKENPLEEYRTLMKRFVLTKIIVPDSVHQASVKKIAAAAREIIWKLLFDGTPSAEDQNKAAELLQEYKGDAGFYGPDDYNSWIFNLRDEVLTKELLDFWRDKMVKMELGPSCARDSDYYDNEDPLPFEFYEKAGCKAPFEGPVNDD”, the “soluble on expression in E. coli” value is “soluble”. Turning to “MCTGFTIQTLNNQVLLGRTMDYDYPLDGSPAVTPRNYRWKSRTGTTGQTQYGFIGTGTDMEGFIYGDGVNEHGVAISTQYFRGYSSYGSTHKADAMNITQNEIVTWILVYTTSIEDMKQQASQIHVVAVYLNDIGEVPPLHYHVSDATGHTVEVSFKEGEVVIKDNPIGVLTNHPDLNWHYSNLRQYINISPYPATANLLEGVTIEPLGNEAGTFGLPGGFTSTERFVRMTFMKANIAQNNDKEMDLMNAFYLLDAVNIPIGIVRPHDADNHYTMYQTVINLTTRTLYIKYYGSNELVALKLTDDLINRKDMTIFKPEKHITIRKLNDNQ”, the “soluble on expression in E. coli” value was “not soluble”. With “MGSDKIHHHHHHVILSDWLAARLDRSAAEPVYRQTLRLMQQAILTGQLPPGTKLPSSRTLAQDLGIARNTVLHVYDQLTAEGYVISTTGSGTYVADTRPDTAAVNARKKPVVVSGIETDADAAIETTRRPKRDLGDLSTRGRRLIDTAGVSAKQWGAFMPGVPDVAEFPARTWSRLQARLWKEANPDLLTYAPGGGYRPLRRALSDYLRVARSVNCTPDQIIITTGIHQSIDLAVRLLTDVGDRAWVEEPCYWGARSVLQSSGITLVPVPVDDEGLNPREQDLQQPPRLALVTPSHQYPLGMVMSLARRRTLLEYARQHNVWIIEDDYDSEFRYGSRPLASLQGLDDAGQVIYVGSLGKMLFPGLRIGYMIAPEHLVDTFRTGVAELYREGQLMQQAVMTDFIMDGHLTSHVRRMRALYGERRQILIDAITARFGSELPVMGDEAGLHLVLGLPDHANDRAVTAAAYDAGVIVRPLASYYSGDTPARRGLLLGYACVPNDRIGPAFDTLARVIEQTALKTPTRAA” the entry was “not soluble”. The value for “MGSSHHHHHHSSGLVPRGSHMWIGVISLFPEMFKAITEFGVTGRAVKHNLLKVECWNPRDFTFDKHKTVDDRPYGGGPGMLMMVQPLRDAIHTAKAAAGEGAKVIYLSPQGRKLDQGGVTELAQNQKLILVCGRYEGIDERLIQTEIDEEWSIGDYVLTGGELPAMTLIDAVARFIPGVLGKQASAEEDSFADGLLDCPHYTRPEVLEGLTVPPVLMSGHHEEIRKWRLKQSLQRTWLRRPELLEGLALTDEQRKLLKEAQAEHNSLEHHHHHH” was “soluble”. For “AQYKDDPILKAATIVSAPLDLAACANRIEQGFSKVYRRYLLSSLKRNALQKHHLLHGELALSYNSIKRVTRLYEFDDLITAPLHGFKDAQDYYDQCSGLSKLLQITLPTLIIHAKDDPFMTEEVIPKFVLPDNIDYRLFEHGGHVGFLTGT”, the “soluble on expression in E. coli” value was “not soluble”. The value for “MSLAIPRQKMPAQDPVERVGNFKEVNLGLTPEQAQQEALRCIQCKDPVCIAGCPVNIKIDQFIKLIAEGDFMGAVRKIKEDNVLPSICGRVCPQEDQCEKVCVIGKKHEPVAIGNLERFVGDYERTSGQKIDPKIAPPTGKKVAVVGSGPAGLSCANDLAQYGHKVVVFEALHELGGVLMYGIPEFRLPKEIVREELDGLRRMGIEFRTDVVVGRTITIDELMEEEGFDAVFIGVGAGLPWFMGIPGENLVGVLAANEFLTRVNLMKAYDFLKSSDTPVFDCKGKNVAVFGGGNTAMDAVRTAKRLGAEHAYIVYRRSEKEMPAREEEIHNAKEEGIEFLLLTTPLEFVGDEKAWLTGAKCQKMELGEPDDSGRRRPVPVEGSEYILPIDMAIISIGNGPNPLIHQTTPDIEVSKRETIVVDVNTMQTSKENVYAGGDIVTGGATVILAMGAGRKAAAAINEKLGGTAKNEGHHHHHH” was “soluble”.
